# In patent publication US20040072753:
# Assays:
# [1] = system: Aβ 1-40
# [2] = system: Aβ 1-42
# [3] = system: T1, Aβ 25-35
# T1 sequence: GSNKGAIIGLM
# [4] = system: T2, histone H1 peptide substrate PKTPKKAKKL
# T2 sequence: PKTPKKAKKL
substance,measurement,setting,value
recombinant p34-cdc2/cyclin B1 (Promega),incorporation of 32P from γ32P-ATP,[1],"Aβ 1-42, Aβ 1-40 and Aβ 25-35 incorporated 32P from γ32P-ATP"
same,incorporation of 32P from γ32P-ATP,[2],"Aβ 1-42, Aβ 1-40 and Aβ 25-35 incorporated 32P from γ32P-ATP"
same,incorporation of 32P from γ32P-ATP,[3],"Aβ 1-42, Aβ 1-40 and Aβ 25-35 incorporated 32P from γ32P-ATP"
same,Michaelis constant (KM) for the phosphorylation,[4],a KM of 2.7 µM for the H1 peptide substrate
